Source: patent US20120184713A1, “Compositions and Methods for Modulation of Bone Density and Biomineralization” (priority 2011, published 2012)
Like-named read-outs stand apart in the source and are kept apart here.

Tests used:
FAM20C [1] = target: T1, FAM20C (Mus musculus, UniProt Q5MJS3); test: FAM20C kinase assay with peptide substrates (P81 phosphocellulose paper); assay type: biochemical; settings: in vitro kinase reaction, FIG. 6
T1 construct: His (from vector pcDNA3.1/V5-His B) (C); made in house; host or cells: HEK293T
T1 sequence (Q5MJS3 88-579): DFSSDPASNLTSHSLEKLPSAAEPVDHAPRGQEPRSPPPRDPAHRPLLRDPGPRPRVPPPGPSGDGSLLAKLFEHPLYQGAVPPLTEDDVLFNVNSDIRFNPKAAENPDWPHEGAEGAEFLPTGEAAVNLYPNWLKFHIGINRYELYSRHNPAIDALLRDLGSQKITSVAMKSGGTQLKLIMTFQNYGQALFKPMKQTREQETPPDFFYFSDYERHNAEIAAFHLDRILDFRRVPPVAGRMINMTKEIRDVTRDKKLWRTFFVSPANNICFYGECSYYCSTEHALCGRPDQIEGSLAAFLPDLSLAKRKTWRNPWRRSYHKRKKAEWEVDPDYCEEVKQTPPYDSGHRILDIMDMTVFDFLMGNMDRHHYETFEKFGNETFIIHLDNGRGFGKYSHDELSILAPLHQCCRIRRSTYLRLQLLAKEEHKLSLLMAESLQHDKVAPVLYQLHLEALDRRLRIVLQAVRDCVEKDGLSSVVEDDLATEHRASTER
Description: FAM20C kinase assays were performed in 10 μl reactions, with 500 μM ATP, including 3 μCi (0.05 μM) of [gamma-^32P]ATP (6000 Ci/mmol, PerkinElmer), 50 mM Tris (pH 7.0), 10 mM MnCl2, 0.1% BSA, purified FAM20C:V5 (5 ng, […]), and dephosphorylated alpha-Casein (0.1 μg, Sigma). The kinase reaction was linear at 5 minutes, and the reaction rate was dependent on enzyme and substrate concentrations. Reactions were stopped by adding SDS sample buffer and boiling, and one half of the reaction volume was subjected to SDS-PAGE. Radioactivity within the gels was detected using a Molecular Dynamics Phosphor Imager. For quantitation of gamma-^32P incorporation, bands were cut out of the gels using the Phosphor Imager pictures as a reference, and then counted by liquid scintillation using a Beckman Coulter LC6500. Myelin Basic Protein (0.5 μg, NEB) and affinity-purified Fat2-3:FLAG (0.1 μg)^8 were used as control substrates. To determine pH-dependency, the pH in the reaction buffer was varied using Tris-HCl buffers. Synthesized peptides were designed from the sequence of human Osteopontin 115Asp to 132Leu, adding three basic amino acids (Arg-Lys-Arg) to its N-terminus to enable peptide binding to phosphocellulose paper (P81, Upstate). Peptides were purchased from Peptide2.0. Peptide1 ([…]; SEQ ID NO: 41), Peptide2 ([…]; SEQ ID NO: 42), Peptide3 ([…]; SEQ ID NO: 43), and Peptide4 ([…]; SEQ ID NO: 44).
(§1) FAM20C kinase assay with peptides substrates were performed in 10 μl reactions, with 500 μM ATP, including 3 μCi (0.05 μM) of [gamma-^32P]ATP (6000 Ci/mmol, PerkinElmer), 50 mM Tris (pH 7.0), 10 mM MnCl2, 0.1% BSA, purified FAM20C:V5 and peptides. Casein Kinase I (500 units, NEB) was used as a control kinase. mutant versions (5 ng, […]), and peptides (2.5 μg, 1 nmol as a standard condition. 250 ng, […] in FAM20C mutants). Reactions were stopped by adding 1.5 μl 0.1N—HCl, and one half of the reaction volume was pipetted on to P81 phospho-cellulose filter paper^27. The filter papers were washed with 0.5% phosphoric acid and subjected to liquid scintillation counting.

Casein Kinase I = target: T2, Casein Kinase I (Rattus norvegicus, UniProt Q06486); test: Casein Kinase I control kinase assay with peptide substrates; assay type: biochemical; settings: in vitro kinase reaction, FIG. 6
T2 construct: purchased NEB
T2 sequence (Q06486 1-317 limits assumed): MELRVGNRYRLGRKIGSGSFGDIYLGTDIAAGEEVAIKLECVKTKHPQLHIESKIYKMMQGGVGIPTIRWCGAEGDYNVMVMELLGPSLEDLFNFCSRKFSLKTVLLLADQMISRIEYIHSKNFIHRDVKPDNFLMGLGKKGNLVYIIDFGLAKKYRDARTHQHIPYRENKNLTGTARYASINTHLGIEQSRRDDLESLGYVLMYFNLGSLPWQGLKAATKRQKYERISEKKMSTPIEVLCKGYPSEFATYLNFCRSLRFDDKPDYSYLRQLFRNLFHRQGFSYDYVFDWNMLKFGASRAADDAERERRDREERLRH
Description: as §1

[2] = system: Golgi apparatus casein kinase (G-CK); settings: literature value (ref. 20), cited from earlier work
FAM20C [3] = target: T1, FAM20C; test: FAM20C in vitro kinase assay with dephosphorylated alpha-Casein as substrate; assay type: biochemical; settings: 5 minute assays
Description: For FAM20C:V5 purification, pcDNA-FAM20C:V5 was transfected to HEK293T cells, and FAM20C:V5 was purified from conditioned media using anti-V5 agarose beads (Sigma). Condition media were incubated with anti-V5 affinity gel (Sigma) overnight at 4° C. Agarose beads were collected by centrifugation, and washed 5 times with TBS. Proteins were eluted using V5 peptides in TBS (Sigma, final concentration: 100 μg/ml). For purification of OPN:FLAG, BSP:FLAG, DMP1:FLAG, DSPP:FLAG and MEPE:FLAG, condition media were incubated with anti-FLAG M2 affinity gel (Sigma) overnight at 4° C. Agarose beads were collected by centrifugation, and washed 5 times with TBS. Purified quantification was performed on gels stained by SYPRO Ruby Protein Gel Stain (Invitrogen), using BSA as a standard.
FAM20C kinase assays were performed in 10 μl reactions, with 500 μM ATP, including 3 μCi (0.05 μM) of [gamma-^32P]ATP (6000 Ci/mmol, PerkinElmer), 50 mM Tris (pH 7.0), 10 mM MnCl2, 0.1% BSA, purified FAM20C:V5 (5 ng, […]), and dephosphorylated alpha-Casein (0.1 μg, Sigma). […] Radioactivity within the gels was detected using a Molecular Dynamics Phosphor Imager. For quantitation of gamma-^32P incorporation, bands were cut out of the gels using the Phosphor Imager pictures as a reference, and then counted by liquid scintillation using a Beckman Coulter LC6500. […]

| phosphorylation of peptide by FAM20C (FAM20C [1]) | phosphorylation of peptide by CKI (Casein Kinase I) | Compound | other results |
| --- | --- | --- | --- |
| phosphorylated much less effectively | reduced, but similar levels of activity | RKRDDSHQADESHHADEADEL [OPN-ASARM^3S-A, peptide in which only the three G-CK consensus sites were changed to Ala] | – |
| is a FAM20C substrate | phosphorylated | RKRDDSHQSDESHHSDESDEL [OPN-ASARM, amino acids 115-132 of human OPN with N-terminal Arg-Lys-Arg] | – |
| still efficiently phosphorylated | reduced, but similar levels of activity | RKRDDAHQSDEAHHSDESDEL [OPN-ASARM^2S-A, derivative in which the other two Ser residues were changed to Ala] | – |
| – | – | Casein | Km ([2]; read-out: Km for α-Casein for G-CK): 12 µM; Km (FAM20C [3]; linear reaction conditions, average of several independent experiments, read-out: Michaelis constant (Km) of FAM20C for Casein): 1.5 µM |
| – | – | Nc1ncnc2c1ncn2[C@@H]1O[C@H](COP(=O)(O)OP(=O)(O)OP(=O)(O)O)[C@@H](O)[C@H]1O [ATP] | Km ([2]; read-out: Km for ATP originally measured for G-CK): 80 µM; Km (FAM20C [3]; FAM20C, dephosphorylated alpha casein as substrate, read-out: Km for ATP): 78 µM |
